Assay results from the Immune Epitope Database (IEDB).
Each block holds one sequence with its values, some of them ahead of it.

Assays:
HLA-A*02:01 [1] = assay: IEDB peptide-MHC binding, purified MHC/competitive/fluorescence; ≥ and ≤ were set here for values at or beyond the usual limits of such assays
HLA-A*24:02 = assay: as above
HLA-B*40:02 = assay: IEDB peptide-MHC binding, purified MHC/competitive/radioactivity; filed as Kd, often an IC50 or EC50 that approximates it; ≥ and ≤ were set here for values at or beyond the usual limits of such assays
HLA-B*44:03 = assay: as above
HLA-B*18:01 = assay: as above
HLA-B*45:01 = assay: as above
HLA-B*40:01 [2] = assay: as above
HLA-B*44:02 [3] = assay: as above
HLA-A*02:02 = assay: as above; conditions: source organism: Lassa virus Josiah
HLA-A*02:03 = assay: as above; conditions: source organism: Lassa virus Josiah
HLA-A*02:06 = assay: as above
HLA-A*68:02 = assay: as above
HLA-B*08:01 = assay: IEDB peptide-MHC binding, purified MHC/direct/fluorescence; filed as Kd, often an IC50 or EC50 that approximates it; ≥ and ≤ were set here for values at or beyond the usual limits of such assays
HLA-A*03:01 = assay: as above
HLA-A*01:01 = assay: as above
HLA-A*11:01 = assay: as above
HLA-B*58:01 = assay: as above
HLA-A*31:01 = assay: as above
HLA-B*27:05 = assay: as above
HLA-A*02:01 [4] = assay: as above
HLA-B*15:01 = assay: as above
HLA-B*07:02 = assay: as above
HLA-A*26:01 [5] = assay: as above
HLA-A*69:01 = assay: as above
HLA-B*40:01 [6] = assay: as above
HLA-B*44:02 [7] = assay: as above
HLA-B*53:01 = assay: IEDB peptide-MHC binding, purified MHC/competitive/radioactivity; filed as Kd, often an IC50 or EC50 that approximates it; ≥ and ≤ were set here for values at or beyond the usual limits of such assays
HLA-B*35:01 = assay: as above
HLA-A*26:01 [8] = assay: as above; conditions: source organism: Dengue virus 3 Martinique/1243/1999
[9] = source organism: Zaire ebolavirus
[10] = source organism: Lassa virus Josiah
[11] = source organism: Mammarenavirus machupoense
[12] = source organism: Cryptosporidium parvum
[13] = source organism: Giardia lamblia ATCC 50803
[14] = source organism: Sudan ebolavirus
[15] = source organism: Dengue virus 3 Martinique/1243/1999
[16] = source organism: Dengue virus 4 Philippines/H241/1956
[17] = source organism: Pseudomonas aeruginosa UCBPP-PA14

Sequence: AAIGLAWIP
- IC50 (HLA-A*02:01 [1]; [9]): ≥ 280 µM
- IC50 (HLA-A*24:02; [9]): ≥ 131 µM

Sequence: AEAQMSIQLI
- Kd (HLA-B*40:02; [10]): 0.0539 µM
- Kd (HLA-B*44:03; [10]): 0.0691 µM
- Kd (HLA-B*18:01; [10]): ≥ 23.5 µM
- Kd (HLA-B*45:01; [10]): 0.0789 µM
- Kd (HLA-B*40:01 [2]; [10]): 1.3 µM
- Kd (HLA-B*44:02 [3]; [10]): 0.0346 µM

Sequence: ALMDCIMFDA
- Kd (HLA-A*02:02): 0.00525 µM
- Kd (HLA-A*02:03): 0.00962 µM
- Kd (HLA-A*02:06; [10]): 0.0336 µM
- Kd (HLA-A*68:02; [10]): ≥ 5 µM

Sequence: ANLEDLIEW
- IC50 (HLA-A*24:02; source organism: Vaccinia virus): ≥ 235 µM

Sequence: CEEGKLCYLT
- Kd (HLA-B*40:02; [11]): 8.09 µM
- Kd (HLA-B*44:03; [11]): 16.2 µM
- Kd (HLA-B*18:01; [11]): 14.1 µM
- Kd (HLA-B*45:01; [11]): 1.6 µM
- Kd (HLA-B*40:01 [2]; [11]): ≥ 69.5 µM
- Kd (HLA-B*44:02 [3]; [11]): 13.2 µM

Sequence: DFIGKTIGF
- Kd (HLA-B*08:01; [12]): ≥ 20 µM
- Kd (HLA-A*03:01; [12]): ≥ 20 µM
- Kd (HLA-A*01:01; [12]): ≥ 20 µM
- Kd (HLA-A*11:01; [12]): ≥ 20 µM
- Kd (HLA-B*58:01; [12]): ≥ 20 µM
- Kd (HLA-A*31:01; [12]): ≥ 20 µM
- Kd (HLA-B*27:05; [12]): ≥ 20 µM
- Kd (HLA-A*02:01 [4]; [12]): ≥ 20 µM
- Kd (HLA-B*15:01; [12]): ≥ 20 µM
- Kd (HLA-B*07:02; [12]): ≥ 20 µM
- Kd (HLA-A*26:01 [5]; [12]): 0.186 µM
- Kd (HLA-A*69:01; [12]): ≥ 20 µM
- Kd (HLA-B*40:01 [6]; [12]): ≥ 20 µM
- Kd (HLA-B*44:02 [7]; [12]): ≥ 20 µM

Sequence: DGQQFYWPV
- IC50 (HLA-A*02:01 [1]; [9]): 57.2 µM
- IC50 (HLA-A*24:02; [9]): 62 µM

- Kd (HLA-A*02:06; source organism: Homo sapiens): ≥ 78.7 µM
- Kd (HLA-A*68:02; source organism: Homo sapiens): 0.826 µM
Sequence: DLKDQIAQL

Sequence: DTTIGEWAF
- IC50 (HLA-A*24:02; [9]): 25.5 µM

Sequence: DYIYLPLLK
- Kd (HLA-B*08:01; [13]): ≥ 20 µM
- Kd (HLA-A*03:01; [13]): 2.22 µM
- Kd (HLA-A*01:01; [13]): ≥ 20 µM
- Kd (HLA-B*58:01; [13]): ≥ 20 µM
- Kd (HLA-B*27:05; [13]): ≥ 20 µM
- Kd (HLA-A*02:01 [4]; [13]): ≥ 20 µM
- Kd (HLA-B*15:01; [13]): ≥ 20 µM
- Kd (HLA-B*07:02; [13]): ≥ 20 µM
- Kd (HLA-A*26:01 [5]; [13]): ≥ 20 µM
- Kd (HLA-A*69:01; [13]): ≥ 20 µM
- Kd (HLA-B*40:01 [6]; [13]): ≥ 20 µM
- Kd (HLA-B*44:02 [7]; [13]): ≥ 20 µM

Sequence: ELLPAVSSG
- IC50 (HLA-A*02:01 [1]; [9]): ≥ 194 µM

Sequence: ELSFEALSL
- IC50 (HLA-A*02:01 [1]; [14]): 23.9 µM
- IC50 (HLA-A*24:02; [14]): 39.5 µM

Sequence: EPIEGKVVQY
- Kd (HLA-B*53:01; [15]): 5.03 µM
- Kd (HLA-B*35:01; [15]): 0.491 µM
- Kd (HLA-A*26:01 [8]): 2.73 µM

Sequence: EPWLSSKPEF
- Kd (HLA-B*53:01; [16]): 0.684 µM
- Kd (HLA-B*35:01; [16]): 1.38 µM

Sequence: ESGAVKYLE
- IC50 (HLA-A*24:02; [9]): ≥ 209 µM

Sequence: ETQGVTAEI
- Kd (HLA-A*68:02; [15]): 0.00296 µM
- Kd (HLA-A*26:01 [8]): 0.282 µM

- Kd (HLA-B*08:01; [17]): ≥ 20 µM
- Kd (HLA-A*03:01; [17]): ≥ 20 µM
- Kd (HLA-A*01:01; [17]): ≥ 20 µM
- Kd (HLA-A*11:01; [17]): ≥ 20 µM
- Kd (HLA-B*58:01; [17]): ≥ 20 µM
- Kd (HLA-A*31:01; [17]): ≥ 20 µM
- Kd (HLA-B*27:05; [17]): ≥ 20 µM
- Kd (HLA-A*02:01 [4]; [17]): ≥ 20 µM
- Kd (HLA-B*15:01; source organism: Pseudomonas aeruginosa): 0.3 µM
- Kd (HLA-B*07:02; [17]): ≥ 20 µM
- Kd (HLA-A*26:01 [5]; [17]): ≥ 20 µM
- Kd (HLA-A*69:01; [17]): ≥ 20 µM
- Kd (HLA-B*40:01 [6]; [17]): ≥ 20 µM
Sequence: GLGGDASAY
